Assays:
[1] = target: mucin domain-deleted Sudan GP (GPdMuc) (Sudan virus (SUDV)) (UniProt Q7T9D9); experiment: BLI competition on Sudan GPdMuc; competitor mAb166
[2] = target: mucin domain-deleted Sudan GP (GPdMuc) (Sudan virus (SUDV)) (UniProt Q7T9D9); experiment: BLI competition on Sudan GPdMuc (column in both tables); competitor 316L
[3] = target: mucin domain-deleted Sudan GP (GPdMuc) (Sudan virus (SUDV)) (UniProt Q7T9D9); experiment: BLI competition on Sudan GPdMuc; competitor 16F6
[4] = target: mucin domain-deleted Sudan GP (GPdMuc) (Sudan virus (SUDV)) (UniProt Q7T9D9); experiment: BLI competition on Sudan GPdMuc (column in both tables); competitor 16F6
[5] = target: mucin domain-deleted Sudan GP (GPdMuc) (Sudan virus (SUDV)) (UniProt Q7T9D9); experiment: BLI competition on Sudan GPdMuc (column in both tables); competitor mAb166
[6] = target: mucin domain-deleted Sudan GP (GPdMuc) (Sudan virus (SUDV)) (UniProt Q7T9D9); experiment: BLI competition on Sudan GPdMuc; competitor 15H10
[7] = target: mucin domain-deleted Sudan GP (GPdMuc) (Sudan virus (SUDV)) (UniProt Q7T9D9); experiment: BLI competition on Sudan GPdMuc (column in both tables); competitor 15H10
[8] = target: mucin domain-deleted Sudan GP (GPdMuc) (Sudan virus (SUDV)) (UniProt Q7T9D9); experiment: BLI competition on Sudan GPdMuc; competitor 316L
[9] = target: mucin domain-deleted Zaire GP (GPdMuc) (Ebola (Zaire) virus (EBOV)) (UniProt Q05320); experiment: BLI competition on Zaire GPdMuc (upper table); competitor 13C6
[10] = target: mucin domain-deleted Zaire GP (GPdMuc) (Ebola (Zaire) virus (EBOV)) (UniProt Q05320); experiment: BLI competition on Zaire GPdMuc (upper table); competitor 316L
[11] = target: mucin domain-deleted Zaire GP (GPdMuc) (Ebola (Zaire) virus (EBOV)) (UniProt Q05320); experiment: BLI competition on Zaire GPdMuc (upper table); competitor 380L
[12] = target: mucin domain-deleted Zaire GP (GPdMuc) (Ebola (Zaire) virus (EBOV)) (UniProt Q05320); experiment: BLI competition on Zaire GPdMuc (upper table); competitor 15H10
[13] = target: mucin domain-deleted Zaire GP (GPdMuc) (Ebola (Zaire) virus (EBOV)) (UniProt Q05320); experiment: BLI competition on Zaire GPdMuc (upper table); competitor mAb114
[14] = target: mucin domain-deleted Zaire GP (GPdMuc) (Ebola (Zaire) virus (EBOV)) (UniProt Q05320); experiment: BLI competition on Zaire GPdMuc (upper table); competitor KZ52 (self)

## HIV-specific antibody VRC01
[1]
  % inhibition of binding: -43.1%
[2]
  % inhibition of binding: 20.6%
[3]
  % inhibition of binding: 31%
[4]
  % inhibition of binding: -7.53%
[5]
  % inhibition of binding: -82.7%
[6]
  % inhibition of binding: -296%
[7]
  % inhibition of binding: -333%
[8]
  % inhibition of binding: 29.9%

## KZ52 (antibody)
[9]
  % inhibition of binding: 13%
[10]
  % inhibition of binding: 8%
[11]
  % inhibition of binding: 10%
[12]
  % inhibition of binding: -1%
[13]
  % inhibition of binding: 9%
[14]
  % inhibition of binding: 96%

Source: patent publication US20260209316A1
